Experimental data taken from the supplement of paper PMC10567573.
± gives the standard deviation.

Assay: protein stability index of a GFP-peptide fusion (GPS, HEK-293T) (PSI 1-6); higher = more stable
Conditions: c terminus: a fixed tail appended
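Note: 24-mer peptide tiles fused after GFP, lentivirally expressed, FACS-sorted into six equal bins by GFP/DsRed ratio, decoded by Illumina sequencing, PSI is the read-weighted mean bin number.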

Row | Sequence | protein stability index (treatment: DMSO) | protein stability index (treatment: MLN4924 1 uM, 8 h)
1 | TGWARKGLGNTWPGASGSAQSLDR [ATP23] | 4.17 ± 0.26 | 4.09 ± 0.16
2 | DHEHEEADLELSLPECLEYEEEFD [GNAS] | 5.55 ± 0.46 | 5.53 ± 0.22
3 | YRFHEHWRFVLQRLVFLAAFVVYL [TSN] | 2.86 ± 0.37 | 2.8 ± 0.96
4 | SGSGGTVAPATMGSARSHASSRAS [ZBTB22] | 4.77 ± 0.18 | 4.68 ± 0.24
5 | RCFWLGMEGLETAEGSNSESSDDD [SDE2] | 5.22 ± 0.42 | 5.09 ± 0.3
6 | KPHRLGDSEHEPVYRAELVGELNG [PWWP2B] | 5.01 ± 0.13 | 4.5 ± 0.4
7 | RVNEKEIVRLRTIGELLAPAAPFD [WSB1] | 3.44 ± 0.2 | 3.5 ± 0.21
8 | EQVFNAVMAWVKYSIQERRPQLPQ [KLHL20] | 2.75 ± 0.67 | 2.35 ± 0.68
9 | GPLLDSLYWTKWYNNQSLGHGSHS [PKD2L1] | 2.51 ± 0.16 | 2.47 ± 0.38
10 | KYKKAVGLKLKQEKKEAYLKLKQG [WDR88] | 2.98 ± 0.87 | 3.58 ± 0.27
11 | AEEAEILHSACGLSKDHQEVETEG [TOR1AIP2] | 5.45 ± 0.33 | 5.72 ± 0.24
12 | TITSEVIEKCTTPLSDDHDEKYGV [CRY1] | 5.21 ± 0.12 | 4.99 ± 0.22
13 | GLDYLHSKCKIIHTDIKPENILMC [SRPK2] | 2.06 ± 0.22 | 1.9 ± 0.35
14 | NVGGALYYTTMQTLTKQDTMLKAM [KCTD10] | 2.6 ± 0.35 | 2.38 ± 0.54
15 | PKKISDLDHCANRVLMYGSELDAD [TPH1] | 4.58 ± 0.083 | 4.47 ± 0.088
16 | GGQRSTPLIIAARNGHAKVVRLLL [FEM1B] | 2.16 ± 0.2 | 2.23 ± 0.44

Row | Sequence | protein stability index (treatment: DMSO) | protein stability index (treatment: MLN4924 1 uM, 8 h)
17 | DKRGETTSASLLNAGLSHTEYQIV [SLC2A12] | 3.69 ± 0.17 | 3.91 ± 0.26
18 | HGRARIARLMLESEYRSDIINAKS [ASB7] | 3.05 ± 0.3 | 3.18 ± 0.23
19 | LLHSQARLAELEAQVRKLELERAQ [FBF1] | 3.68 ± 0.15 | 3.5 ± 0.58
20 | NGPDCGYGSFHQQYWLDGKIIAVG [ATE1] | 2.35 ± 0.42 | 2.26 ± 0.26
21 | AEKIEYNESMKAYHNSPAYLAYIN [SMARCE1] | 3.31 ± 0.5 | 3.46 ± 0.31
22 | HFKKTKKMGGKDFSFRYQQELEEE [ATL3] | 2.59 ± 0.56 | 3.54 ± 0.81
23 | SSSSRVLLRQQLMRAQAQEQERRE [TFE3] | 4.87 ± 0.3 | 5.02 ± 0.22
24 | EWIKLDYHRRHNPKTNEDFEFLYN [IQUB] | 2.12 ± 0.19 | 2.24 ± 0.18
25 | RLEAARLSLEEELSRVKAAALSER [LRRC45] | 3.71 ± 0.21 | 4.04 ± 0.39
26 | KNIFGTPEFVAPEIVNYEPLGLEA [DAPK3] | 3.95 ± 0.23 | 4.26 ± 0.51
27 | VLVAETTMARIRRVYVSGLMKGGA [APMAP] | 2.17 ± 0.27 | 2.1 ± 0.28
28 | RGQEPARADQLCQQELRELRRELE [PRPH] | 4.48 ± 0.36 | 4.53 ± 0.5
29 | FSPANPESSMEDCLAHLGEKVSQE [BCL2L13] | 5.2 ± 0.38 | 5.39 ± 0.16
30 | QPVVDTFDIRILMAKSVKYTVNFL [CARM1] | 2.79 ± 0.7 | 2.62 ± 0.56
31 | LNEEINIASSDSEVEIVGVQEHAR [C18orf25] | 5.27 ± 0.1 | 5.33 ± 0.18
32 | GGGISCVLQDGCVFEKAGVSISVV [CPOX] | 2.23 ± 0.63 | 2.41 ± 0.48
